Reference: patent publication US20260347476 (published 2026)

T1: IL-15Rbetagamma heterodimer (human, UniProt P14784)
T1 chain 1: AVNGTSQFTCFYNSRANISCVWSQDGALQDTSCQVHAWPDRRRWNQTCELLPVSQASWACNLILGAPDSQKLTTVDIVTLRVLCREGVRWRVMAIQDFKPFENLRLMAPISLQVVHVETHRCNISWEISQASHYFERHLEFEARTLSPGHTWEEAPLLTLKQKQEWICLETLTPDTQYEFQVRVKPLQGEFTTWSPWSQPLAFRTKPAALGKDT
T1 chain 2: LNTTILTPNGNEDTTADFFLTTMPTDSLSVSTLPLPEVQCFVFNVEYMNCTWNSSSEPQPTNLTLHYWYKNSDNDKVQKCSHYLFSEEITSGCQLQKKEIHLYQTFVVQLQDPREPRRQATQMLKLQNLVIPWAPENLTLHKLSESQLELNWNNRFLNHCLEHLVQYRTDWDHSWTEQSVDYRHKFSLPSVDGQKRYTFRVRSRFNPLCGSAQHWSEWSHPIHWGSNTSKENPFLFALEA


What was measured:
IL-15 [1] = molecular target: T2, IL-15 (human, UniProt P40933); assay: SPR, PD1 capture
T2 sequence (P40933 49-162): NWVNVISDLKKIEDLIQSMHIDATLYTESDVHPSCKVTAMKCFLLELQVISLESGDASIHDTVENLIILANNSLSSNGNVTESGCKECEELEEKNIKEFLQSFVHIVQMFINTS

IL-15 [2] = molecular target: T2, IL-15; assay: SPR, anti-human Fc capture
IL-15 [3] = molecular target: T2, IL-15; assay: SPR, PD1 capture, additional production
IL-15 [4] = molecular target: T2, IL-15; assay: SPR, anti-human Fc capture, additional production
[5] = molecular target: T1, IL-15Rbetagamma heterodimer; assay: SPR, PD1 capture
[6] = molecular target: T1, IL-15Rbetagamma heterodimer; assay: SPR, anti-human Fc capture
[7] = molecular target: T1, IL-15Rbetagamma heterodimer; assay: SPR, PD1 capture, additional production
[8] = molecular target: T1, IL-15Rbetagamma heterodimer; assay: SPR, anti-human Fc capture, IL-15 and PD1 bound
PD-1 [9] = molecular target: T3, PD-1 (human, UniProt Q15116); assay: SPR, PD1 surface
T3 sequence (Q15116 25-167): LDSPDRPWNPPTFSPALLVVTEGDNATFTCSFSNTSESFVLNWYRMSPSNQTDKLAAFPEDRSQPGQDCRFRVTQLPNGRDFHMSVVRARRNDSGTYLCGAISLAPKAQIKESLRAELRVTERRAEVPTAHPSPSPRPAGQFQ

PD-1 [10] = molecular target: T3, PD-1; assay: SPR, protein A capture
PD-1 [11] = molecular target: T3, PD-1; assay: SPR, anti-human Fc capture, additional production
PD-1 [12] = molecular target: T3, PD-1; assay: SPR, protein A capture; remark: listed apart in the source

Binder	Kd (IL-15 [1]) [nM]	Kd (IL-15 [2]) [nM]	Kd [5] [nM]	Kd [6] [nM]	further results
RV30 IL-15 arm (antibody, V domains shown) VH: QVQLVQSGAEVKKPGASVKVSCKASGYSFSSFGISWVRQAPGQGLEWLGWISAFNGYTKYAQKFQDRVTMTTDTSTSTAYMELRSLRSDDTAVYYCARDPAAWPLQQSLAWFDPWGQGTMVTVSS VL: QSVLTQPPSASGTPGQRVTISCSGSTSNLKRNYVYWYQQLPGTAPKLLIYRDRRRPSGVPDRFSGSKSGTSASLAISGLRSEDEADYYCAWYDRELSEWVFGGGTKLTVL	0.452	0.077	–	–	Kd (IL-15 [3]): 0.85 nM; Kd (IL-15 [4]): 0.0664 nM
RV20:IL-15 complex (antibody) chain 1: QVQLVQSGAEVKKPGASVKVSCKASGYSFSSFGISWVRQAPGQGLEWLGWISAFNGYTKYAQKFQDRVTMTTDTSTSTAYMELRSLRSDDTAVYYCARDPAAWPLQQSLAWFDPWGQGTMVTVSS chain 2: QSVLTQPPSASGTPGQRVTISCSGSTSNLKRNYVYWYQQLPGTAPKLLIYRDRRRPSGVPDRFSGSKSGTSASLAISGLRSEDEADYYCAWYDRELSEWVFGGGTKLTVL chain 3: not shown	–	–	0.667	0.852	Kd [7]: 0.726 nM
RV20 IL-15 arm (antibody, V domains shown) VH: QVQLVQSGAEVKKPGASVKVSCKASGYSFSSFGISWVRQAPGQGLEWLGWISAFNGYTKYAQKFQDRVTMTTDTSTSTAYMELRSLRSDDTAVYYCARDPAAWPLQQSLAWFDPWGQGTMVTVSS VL: QSVLTQPPSASGTPGQRVTISCSGSTSNLKRNYVYWYQQLPGTAPKLLIYRDRRRPSGVPDRFSGSKSGTSASLAISGLRSEDEADYYCAWYDRELSEWVFGGGTKLTVL	–	0.0519	–	–	Kd (IL-15 [3]): 0.169 nM; Kd (IL-15 [4]): 0.0531 nM
RV20 PD-1 arm (antibody, V domains shown) VH: QVQLVQSGVEVKKPGASVKVSCKASGYTFTNYYMYWVRQAPGQCLEWMGGINPSNGGTNFNEKFKNRVTLTTDSSTTTAYMELKSLQFDDTAVYYCARRDYRFDMGFDYWGQGTTVTVSS VL: EIVLTQSPATLSLSPGERATLSCRASKGVSTSGYSYLHWYQQKPGQAPRLLIYLASYLESGVPARFSGSGSGTDFTLTISSLEPEDFAVYYCQHSRDLPLTFGCGTKVEIK	–	–	–	–	Kd (PD-1 [9]): 17.2 nM; Kd (PD-1 [10]): 269 nM; Kd (PD-1 [11]): 3.99 nM
RV19 PD-1 arm (antibody, V domains shown) VH: QVQLVQSGVEVKKPGASVKVSCKASGYTFTNYYMYWVRQAPGQCLEWMGGINPSNGGTNFNEKFKNRVTLTTDSSTTTAYMELKSLQFDDTAVYYCARRDYRFDMGFDYWGQGTTVTVSS VL: EIVLTQSPATLSLSPGERATLSCRASKGVSTSGYSYLHWYQQKPGQAPRLLIYLASYLESGVPARFSGSGSGTDFTLTISSLEPEDFAVYYCQHSRDLPLTFGCGTKVEI	–	–	–	–	binding result (PD-1 [12]): no binding
RV26 PD-1 arm (antibody, V domains shown) VH: QVQLVQSGVEVKKPGASVKVSCKASGYTFTNYYMYWVRQAPGQCLEWMGGINPSNGGTNFNEKFKNRVTLTTDSSTTTAYMELKSLQFDDTAVYYCARRDYRFDMGFDYWGQGTTVTVSS VL: EIVLTQSPATLSLSPGERATLSCRASKGVSTSGYSYLHWYQQKPGQAPRLLIYLASYLESGVPARFSGSGSGTDFTLTISSLEPEDFAVYYCQHSRDLPLTFGCGTKVEIK	–	–	–	–	Kd (PD-1 [9]): 2.19 nM

Further lines, with some results ahead:

Kd (IL-15 [1]) [nM]	Kd (IL-15 [2]) [nM]	Kd [5] [nM]	Kd [6] [nM]	Binder	further results
–	–	0.828	0.849	RV30:IL-15 complex (antibody) chain 1: QVQLVQSGAEVKKPGASVKVSCKASGYSFSSFGISWVRQAPGQGLEWLGWISAFNGYTKYAQKFQDRVTMTTDTSTSTAYMELRSLRSDDTAVYYCARDPAAWPLQQSLAWFDPWGQGTMVTVSS chain 2: QSVLTQPPSASGTPGQRVTISCSGSTSNLKRNYVYWYQQLPGTAPKLLIYRDRRRPSGVPDRFSGSKSGTSASLAISGLRSEDEADYYCAWYDRELSEWVFGGGTKLTVL chain 3: not shown	Kd [7]: 0.665 nM; Kd [8]: 0.706 nM
0.111	0.116	–	–	RV36 IL-15 arm (antibody, V domains shown) VH: QVQLVQSGAEVKKPGASVKVSCKASGYSFSSFGISWVRQAPGQGLEWLGWISAFNGYTKYAQKFQDRVTMTTDTSTSTAYMELRSLRSDDTAVYYCARDPAAWPLQQSLAWFDPWGQGTMVTVSS VL: QSVLTQPPSASGTPGQRVTISCSGSTSNLKRNYVYWYQQLPGTAPKLLIYRDRRRPSGVPDRFSGSKSGTSASLAISGLRSEDEADYYCAWYDRELSEWVFGGGTKLTVL	–
0.717	0.18	–	–	RV31 IL-15 arm (antibody, V domains shown) VH: QVQLVQSGAEVKKPGASVKVSCKASGYSFSSFGISWVRQAPGQGLEWLGWISAFNGYTKYAQKFQDRVTMTTDTSTSTAYMELRSLRSDDTAVYYCARDPAAWPLQQSLAWFDPWGQGTMVTVSS VL: QSVLTQPPSASGTPGQRVTISCSGSTSNLKRNYVYWYQQLPGTAPKLLIYRDRRRPSGVPDRFSGSKSGTSASLAISGLRSEDEADYYCAWYDRELSEWVFGGGTKLTVL	–
–	–	0.693	0.986	RV37:IL-15 complex (antibody) chain 1: QVQLVQSGAEVKKPGASVKVSCKASGYSFSSFGISWVRQAPGQGLEWLGWISAFNGYTKYAQKFQDRVTMTTDTSTSTAYMELRSLRSDDTAVYYCARDPAAWPLQQSLAWFDPWGQGTMVTVSS chain 2: QSVLTQPPSASGTPGQRVTISCSGSTSNLKRNYVYWYQQLPGTAPKLLIYRDRRRPSGVPDRFSGSKSGTSASLAISGLRSEDEADYYCAWYDRELSEWVFGGGTKLTVL chain 3: not shown	Kd [8]: 0.848 nM
